According to US20210063414A1, “METHODS FOR PREVENTING AND/OR TREATING BONE LOSS CONDITIONS BY MODULATING IRISIN” (Dana-Farber Cancer Institute, Inc., priority 2018, published 2021):

Experiments:
[1] = biological target: T1, MLO-Y4 cell surface proteins (Mus musculus, UniProt Q99LC5); assay: Crosslinking/co-immunoprecipitation/mass spectrometry (TMT quantitative proteomics) to identify irisin receptors; type: binding; details: co-precipitated protein Etfa (ETFA_MOUSE)
T1 construct: endogenous in cells; host or cells: MLO-Y4
T1 sequence (Q99LC5 20-333): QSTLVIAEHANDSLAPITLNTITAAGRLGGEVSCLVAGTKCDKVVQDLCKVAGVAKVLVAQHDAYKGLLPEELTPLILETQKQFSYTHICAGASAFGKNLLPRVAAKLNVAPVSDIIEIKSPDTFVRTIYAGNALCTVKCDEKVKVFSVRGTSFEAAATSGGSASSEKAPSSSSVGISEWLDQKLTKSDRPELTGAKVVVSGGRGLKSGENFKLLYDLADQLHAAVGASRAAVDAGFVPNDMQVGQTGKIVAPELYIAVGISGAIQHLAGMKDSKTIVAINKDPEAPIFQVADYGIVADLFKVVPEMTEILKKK
Summary of the method: (§1)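 Mouse MLO-Y4 cells were switched to serum-free FreeStyle medium for 4 h, chilled, then exposed to 10 nM His-tagged irisin (or adipsin as control) for 20 min. Cells were crosslinked with 1.5 mM DTSSP (30 min, ice), and bound proteins were pulled down on Ni-NTA and eluted with 250 mM imidazole. Eluates were separated by SDS-PAGE, trypsin-digested in gel, TMT 6-plex labelled and quantified by MS3-based LC-MS/MS on an Orbitrap Fusion Lumos.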

[2] = biological target: T2, MLO-Y4 cell surface proteins (Mus musculus, UniProt E9Q9D8); assay: as above; type: binding; details: co-precipitated protein Ankrd35 (E9Q9D8_MOUSE)
T2 construct: endogenous in cells; host or cells: MLO-Y4
T2 sequence (E9Q9D8 1-996): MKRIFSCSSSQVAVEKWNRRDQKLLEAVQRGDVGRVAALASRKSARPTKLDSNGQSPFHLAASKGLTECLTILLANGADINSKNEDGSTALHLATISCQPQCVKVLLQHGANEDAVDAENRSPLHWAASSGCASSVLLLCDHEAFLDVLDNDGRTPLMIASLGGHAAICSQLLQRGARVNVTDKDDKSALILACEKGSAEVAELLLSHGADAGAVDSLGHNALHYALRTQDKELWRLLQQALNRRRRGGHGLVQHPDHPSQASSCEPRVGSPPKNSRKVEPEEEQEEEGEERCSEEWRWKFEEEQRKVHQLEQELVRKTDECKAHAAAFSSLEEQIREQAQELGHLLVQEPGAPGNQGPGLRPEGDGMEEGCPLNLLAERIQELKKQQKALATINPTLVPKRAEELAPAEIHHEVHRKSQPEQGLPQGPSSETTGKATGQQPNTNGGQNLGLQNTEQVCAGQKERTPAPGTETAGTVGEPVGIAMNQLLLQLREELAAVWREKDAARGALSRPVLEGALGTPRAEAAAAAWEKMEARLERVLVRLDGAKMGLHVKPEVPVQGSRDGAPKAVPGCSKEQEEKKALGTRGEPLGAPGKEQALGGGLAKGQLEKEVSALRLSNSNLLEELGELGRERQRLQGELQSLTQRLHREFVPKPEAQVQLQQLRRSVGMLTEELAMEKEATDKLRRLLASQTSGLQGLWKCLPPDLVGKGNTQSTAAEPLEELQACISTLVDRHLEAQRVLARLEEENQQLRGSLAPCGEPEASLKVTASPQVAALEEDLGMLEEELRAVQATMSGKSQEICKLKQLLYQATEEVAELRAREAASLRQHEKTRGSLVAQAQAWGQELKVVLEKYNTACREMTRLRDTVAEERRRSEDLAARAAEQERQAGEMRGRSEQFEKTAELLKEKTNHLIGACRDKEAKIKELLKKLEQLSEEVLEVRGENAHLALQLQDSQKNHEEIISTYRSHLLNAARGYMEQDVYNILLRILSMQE
Summary of the method: as §1

B1: irisin: secreted cleaved form of FNDC5; recombinant human/mouse irisin with C-terminal his tag produced in HEK293 cells (protein)
chain: DSPSAPVNVTVRHLKANSAVVSWDVLEDEVVIGFAISQQKKDVRMLRFIQEVNTTTRSCALWDLEEDTEYIVHVQAISIQGQSPASEPVLFKTPREAEKMASKNKDEVTMKE
modifications: left off: small tags and cut ends
notes: secreted cleaved form of FNDC5; recombinant human/mouse irisin with C-terminal his tag produced in HEK293 cells
In the case of B1, the TMT signal-to-noise ratio [1] is reported as 44.9816, the “irisin/adipsin TMT signal-to-noise ratio” value [1] is reported as 0.561 and the TMT signal-to-noise ratio [2] is reported as 3.32. For the same molecule, the “irisin/adipsin TMT signal-to-noise ratio” value [2] was 0.011.
